Test results taken from US20140178935A1 (AVEO PHARMACEUTICALS, published 2014).

T1: recombinant mhm chimeric HGF protein containing the region I499-R556 of hHGF disposed between murine sequences (mouse-human-mouse chimera, UniProt Q08048 56-728)
T1 construct: also called mhm chimera (I499-R556)
T1 chain: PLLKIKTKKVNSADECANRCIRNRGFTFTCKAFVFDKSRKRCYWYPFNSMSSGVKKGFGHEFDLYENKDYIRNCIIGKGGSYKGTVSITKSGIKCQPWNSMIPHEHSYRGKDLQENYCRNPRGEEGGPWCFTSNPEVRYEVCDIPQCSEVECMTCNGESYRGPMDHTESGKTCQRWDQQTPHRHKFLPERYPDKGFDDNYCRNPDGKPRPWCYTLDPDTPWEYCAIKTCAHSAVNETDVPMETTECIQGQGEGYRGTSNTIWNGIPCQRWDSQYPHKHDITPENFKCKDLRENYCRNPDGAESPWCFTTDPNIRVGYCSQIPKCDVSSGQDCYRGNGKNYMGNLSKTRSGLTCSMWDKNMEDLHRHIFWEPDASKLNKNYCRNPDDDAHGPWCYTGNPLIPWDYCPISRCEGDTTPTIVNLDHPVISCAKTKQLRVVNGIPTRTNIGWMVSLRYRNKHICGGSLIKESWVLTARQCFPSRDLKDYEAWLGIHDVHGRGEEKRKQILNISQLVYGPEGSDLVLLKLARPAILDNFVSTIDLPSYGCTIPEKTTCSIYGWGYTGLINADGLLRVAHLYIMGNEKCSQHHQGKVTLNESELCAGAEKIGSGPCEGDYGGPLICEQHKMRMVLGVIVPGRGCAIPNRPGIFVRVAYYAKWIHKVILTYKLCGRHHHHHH


What was measured:
[1] = target: T2, recombinant human HGF (R&D Systems, Catalog No. 294-HGN-025) (human, UniProt P14210 32-728); assay: SPR, captured antibody, HGF injected, 37 C
T2 construct: Mature HGF is a disulfide-linked heterodimer of alpha and beta chain cut from one precursor; also called rhHGF (R&D Systems); rhHGF
Procedure: Mouse anti-human immunoglobulins (Jackson Labs, Catalog No. 209-005) or rabbit anti-mouse immunoglobulins (BIAcore, Catalog No. BR-1005-14) were immobilized on carboxymethylated dextran CM4 sensor chips (BIAcore, Catalog No. BR-1006-68) by amine coupling (BIAcore, Catalog No. BR-1000-50) using a standard coupling protocol according to manufacturer's instructions. […] The analyses were performed at 25° C. and 37° C. using PBS (GIBCO, Catalog No. 14040-133) containing 0.05% surfactant P20 (BIAcore, Catalog No. BR-1000-54), and 2 mg/mL BSA (EMD, Catalog No. 2930) as running buffer.
The antibodies were captured in an individual flow cell at a flow rate of […]. Injection time was variable for each antibody to yield approximately 20 RU of antibody captured for each cycle. […] The dissociation phase was monitored for 15 or 90 minutes, depending on concentration. The surface of mouse anti-human immunoglobulins sensor chips was then regenerated with 10 mM Glycine-HCl, pH 2.2 (BIAcore, Catalog No. BR-1003-54) injected for 3 minutes at a flow rate of 60 μL/min before another cycle was initiated. The surface of rabbit anti-mouse immunoglobulins sensor chips was regenerated with 10 mM Glycine-HCl, pH 1.7 (BIAcore, Catalog No. BR-1003-54) injected for 3 minutes at a flow rate of 60 μL/min before another cycle was initiated.
Kinetic parameters were determined using the kinetic function of the BIAevaluation software with reference subtraction.

[2] = target: T2, recombinant human HGF (R&D Systems, …); assay: competition ELISA (DELFIA): antibody inhibits biotinylated c-Met binding to plate-coated HGF
Procedure: The plates then were blocked with 200 μL of 5% non-fat dry milk in PBS for 1 hour at room temperature. […] 100 μL of sample per well was transferred to the assay plate and incubated for 2 hours at room temperature. The resulting plates were washed three times with PBS-0.1% Tween 20, and incubated for 1 hour at room temperature with Eu-labeled Streptavidin (Wallac, Catalog No. 1244-360) diluted 1:1000 in DELFIA assay buffer (Wallac, Catalog No. 4002-0010). The resulting plates were washed 3 times with DELFIA wash solution (Wallac, Catalog No. 4010-0010) and incubated with 100 μL/well DELFIA enhancement solution (Wallac #4001-0010) for 15 minutes at room temperature with agitation. The plates were read on Victor³V instrument (Perkin Elmer) using the Europium method. The IC₅₀ values were calculated using Prism.

[3] = target: T2, recombinant human HGF (R&D Systems, …); assay: cell-based or functional assay
[4] = target: T2, recombinant human HGF (R&D Systems, …); assay: cell-based or functional assay; remark: listed apart in the source
[5] = target: T2, recombinant human HGF (R&D Systems, …); assay: SPR, captured antibody, HGF injected, 25 C
Procedure: Mouse anti-human immunoglobulins (Jackson Labs, Catalog No. 209-005) were immobilized on carboxymethylated dextran CM4 sensor chips (BIAcore, Catalog No. BR-1006-68) by amine coupling (BIAcore, Catalog No. BR-1000-50) using a standard coupling protocol according to manufacturer's instructions. The analyses were performed at 25° C. using PBS (GIBCO, Catalog No. 14040-133) containing 0.05% surfactant P20 (BIAcore, Catalog No. BR-1000-54), and 2 mg/mL BSA (EMD, Catalog No. 2930).
The antibodies were captured in an individual flow cell at a flow rate of 10 μL/min. Injection time was variable for each antibody to yield approximately 20 RU of antibody captured for each cycle. […] The dissociation phase was monitored for 15 or 90 minutes, depending on concentration. The surface then was regenerated with 10 mM Glycine-HCl, pH 2.2 (BIAcore, Catalog No. BR-1003-54) injected for 3 minutes at a flow rate of 60 μL/min before another cycle was initiated.
Kinetic parameters were determined using the kinetic function of the BIAevalutation™ software with reference subtraction.

[6] = target: T1, recombinant mhm chimeric HGF protein …; assay: SPR, antibody immobilized, HGF protein injected, 25 C
Procedure: Analyses were performed at 25° C. using PBS (GIBCO, Catalog No. 14040-133) containing 0.05% surfactant P20 (BIAcore, Catalog No. R-1000-54), 2 mg/mL BSA (EMD, Catalog No. 2930) and 10 mg/mL CM-Dextran Sodium salt (Fluka, Catalog No. 86524) as running buffer. […] The resulting binding was determined as resonance units (RU) over baseline 30 seconds after the end of injection. […] Non-specific binding was monitored by comparing binding to a control surface.

T2 sequence (P14210 32-728 limits assumed): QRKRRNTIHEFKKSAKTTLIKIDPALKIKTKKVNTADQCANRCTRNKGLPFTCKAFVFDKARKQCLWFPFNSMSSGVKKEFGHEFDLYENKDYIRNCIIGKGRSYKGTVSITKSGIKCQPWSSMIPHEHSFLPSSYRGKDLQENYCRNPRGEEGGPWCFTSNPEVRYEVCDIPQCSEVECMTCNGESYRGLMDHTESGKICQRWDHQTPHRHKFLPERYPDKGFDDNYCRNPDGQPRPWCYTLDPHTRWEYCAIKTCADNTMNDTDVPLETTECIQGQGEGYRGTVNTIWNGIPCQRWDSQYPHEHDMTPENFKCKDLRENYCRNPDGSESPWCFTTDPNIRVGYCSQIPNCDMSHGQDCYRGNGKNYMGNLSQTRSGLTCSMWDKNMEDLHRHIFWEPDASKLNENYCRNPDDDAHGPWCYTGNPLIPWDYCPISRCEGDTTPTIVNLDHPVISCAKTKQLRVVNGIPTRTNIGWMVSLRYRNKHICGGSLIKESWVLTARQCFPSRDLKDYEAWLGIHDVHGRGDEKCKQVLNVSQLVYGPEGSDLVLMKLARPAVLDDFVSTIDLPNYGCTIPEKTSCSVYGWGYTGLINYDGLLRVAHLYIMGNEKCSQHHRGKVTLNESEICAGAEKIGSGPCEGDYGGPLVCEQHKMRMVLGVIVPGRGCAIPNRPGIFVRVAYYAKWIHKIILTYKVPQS

| Kd [1] [nM] | koff [1] [s⁻¹] | kon [1] [M⁻¹ s⁻¹] | IC50 [2] [nM] | EC50, inhibition of HGF-stimulated c-Met phosphorylation in PC-3 cells, Average of Two Trials [3] [nM] | IC50, neutralization of HGF stimulated BrdU incorporation in 4 MBr-5 cells [4] [nM] | Kd [5] [nM] | koff [5] [s⁻¹] | kon [5] [M⁻¹ s⁻¹] | binding result [6] | Binder |
| --- | --- | --- | --- | --- | --- | --- | --- | --- | --- | --- |
| 0.0033 | 1e-05 | 3.1e+06 | 6.5 | 0.75 | 0.58 | 0.0065 | 1.1e-05 | 1.7e+06 | binds | HE2B8-4 (LRMR2B8HC + IgG1 constant region G1m(3) allotype allele 1, plus LRMR2B8LC + Kappa constant region Km(3) allotype allele 1) (antibody, V domains shown, Human Engineered 2B8 variant, human IgG1 kappa, made in HEK293E cells) VH: QVQLVQPGAEVKKPGTSVKLSCKASGYTFTTYWMHWVRQAPGQGLEWIGEINPTNGHTNYNQKFQGRATLTVDKSTSTAYMELSSLRSEDTAVYYCARNYVGSIFDYWGQGTLLTVSS VL: DIVMTQSPDSLAMSLGERVTLNCKASENVVSYVSWYQQKPGQSPKLLIYGASNRESGVPDRFSGSGSATDFTLTISSVQAEDVADYHCGQSYNYPYTFGQGTKLEIKR |
| 0.0045 | 1.3e-05 | 2.8e+06 | 9.2 | 0.91 | 0.86 | 0.0073 | 1e-05 | 1.4e+06 | binds | anti-hHGF monoclonal antibody 2B8 (antibody, mouse IgG1, kappa, Murine IgG1 kappa from hybridoma; also called murine 2B8; mouse 2B8) heavy: QVQLQQPGAELVKPGTSVKLSCKASGYTFTTYWMHWVNQRPGQGLEWIGEINPTNGHTNYNEKFKSKATLTVDKSSSTAYMQLSSLTSEDSAVYYCARNYVGSIFDYWGQGTTLTVSSAKTTPPSVYPLAPGSAAQTNSMVTLGCLVKGYFPEPVTVTWNSGSLSSGVHTFPAVLQSDLYTLSSSVTVPSSTWPSETVTCNVAHPASSTKVDKKIVPRDCGCKPCICTVPEVSSVFIFPPKPKDVLTITLTPKVTCVVVDISKDDPEVQFSWFVDDVEVHTAQTQPREEQFNSTFRSVSELPIMHQDWLNGKEFKCRVNSAAFPAPIEKTISKTKGRPKAPQVYTIPPPKEQMAKDKVSLTCMITDFFPEDITVEWQWNGQPAENYKNTQPIMDTDGSYFVYSKLNVQKSNWEAGNTFTCSVLHEGLHNHHTEKSLSHSPGK light: NIVMTQSPKSMSMSVGERVTLSCKASENVVSYVSWYQQKPAQSPKLLIYGASNRNTGVPDRFTGSGSATDFTLTISSVRAEDLADYHCGQSYNYPYTFGGGTRLEIKRADAAPTVSIFPPSSEQLTSGGASVVCFLNNFYPKDINVKWKIDGSERQNGVLNSWTDQDSKDSTYSMSSTLTLTKDEYERHNSYTCEATHKTSTSPIVKSFNRNEC |
